This data set can be described thus: soluble on expression in E. coli; label from the status in PepcDB or PDB records.
Take “MAHHHHHHMKCVLVVHSGGERMQRSCDLPDGVSTQEQLRAFVRSQDLRLESLDFTFAASLVRLTAGAAEKKGEKVVLREDADVQQLLKTAKQQRATHVLTFEVTISMSSSSPRNLGSFLSAEYAVDKDLVTLHVFAPLACPSRGKNPSYQEKMFIIPTRCVLESLARAVEDTLSIKLTNSGMKLVLYTMPQQPNGDQVEILYDTSALELLRQHTSQSTPGSTHLRHPYANPENYV”: the “soluble on expression in E. coli” value is reported as “not soluble”.

As to “MSLATSRTVLPDDLLINASDEVLTRQDLVLTALGRRPADRLLRVGRLLDVHSRTWLDDQEIVIKGRRIAYVGPAGSYAGEVNERFSEPDLAAVPGFGEAHKHIESSHLTPEWEAALVMPHGVTWTCEASHEFSNVNGARNLEFWLEARRRGSPMKIFPLPGSAVPPTAYEWGGGWFGYDEQKAFLSESLMVAGLDEVMDWPSISDPGNPSYDRLWGMIGATFEQRGVVEGHGAGLRDMASINAFAAAGLASDHEGWFLDEIWQKLLHGLFIELRPHSLPEVIRGLIDKGLTDWSQIALVTDDRSASDTLKIGATDHNVRLAIENGLAPETAIQCVTLNPARHMRLTPWVGSIAPGRFADIVLLSDVASLSIEKVWADGRPASEGATFIGVRPEIDWPQWATRTVKIDRTVTADDFRIEAPPNRTTVNAALLRPFHWHDDFITMELPVEEGAVQRDAARNVTKFSIVDRFSGEARVSRMFWLGTGPRTPETALASTLGHDKHNIWTVGSSDEAMAISVNALNEQQGGWVLVSGGKILARVRYEVGGLMTARSAEALDAEMQALYAAGAGIDWMYEPTFSPRWWPGFPERLSFATLTCSPWRWVLVAPSELAPDGFVNVLTGKTHPIVWEGHHHHHH”, the “soluble on expression in E. coli” value is on record as “soluble”.

“MGSDKIHHHHHHMELHIRLEGRKGLADQLYQQLRDGIDSGHLAAGSQLPPTRLLAEQLGVSRKTVAEAYSRLTYDNLLSGVVGRGTFVTPRHPLRSNESATLPLAGAASLERWQQRATVLSQRQLQAPSRYDFVGGASSKAQFPFDQWRSCLNYALRRSQRHPERQFPAQGLPELREAIAHHIAYSRGVHCSAADLLVCNGAQQALDLIARVLVEPGCQVAMEDPGYPPARQLFLALGARLQSVPVDDEGLCVEQIADGTRLIYVTPSHQFPLGMPMSEPRRHALLARAAELGALIIEDDYDCEFRYHGPASDALQRLDRHGLVAYVGTFSKTLLPELRLGYAVLPPAVLQAACVAKHLSDWHSPTLLQWALARFLGEGHLNKHIRRCHEVYSARRERILARLGGDLAPWFSAIPASAGFHLSALATPGVDVELLANLARKVEVGLYSLAPFFSEAPVRPGLLMGFGAIELLDIDPALDRVRDTLQRLS”: the “soluble on expression in E. coli” value is listed as “not soluble”.

On to “YICRLPAEEIGFPEFYPRISRSMKSIKRPNLIYPAGKGLAVHIYPDKEDVRNYYIPIEPCLFQKLDSMLEEVEKLLIDVIHDQEINTNDPEEKKKLLVKALEKTCD”, for which the “soluble on expression in E. coli” value is “not soluble”.

On to “MAHHHHHHMTQSVSIGADHRLEATTSDCVSSVCFSPKECPMLMTGVASWDGSCSIWQVARNPAGAVISQPAWTTTHDSPLLTMSFSADGRVFFGGCSKTAVMWDLNSNQKAVVASHDLPISCLDFLTLPQTMSQMLITGSWDGKLRWWDLRQQSYVREENLGEPVFALDAQKTVPMMAAATGRLAHVYDVQQMQKVNELKLPDVMKFNLRCITCAPQYDGVGVGSSEGRVSFISMKDAPGCTFKAHITTEKSHYILSQTNFCVHHPTLPLLLSGGGDGNLTVINRADRKVIKTLQCEQKVGTQAIPISAGDISADGSLVAYAHSYDWAMGKSGYRNQPTSVHIRPLS”, for which the “soluble on expression in E. coli” value is recorded as “not soluble”.

Take “MDPLTGVPIRQEVPRLMERTFQENQAETYVLFLINLDRFKLVNDSLGEGYGDQVLQTLVRRLLWQLPNQQWIARVSGDEFIACAAIKGELPKKETLATYISSIIQQPFQVDEVQFTMTASIGAAVYPMDGKSVEMIWNSLERALRHAKARGGNCVSWFCQELKDEWIHPFRLENDLRRAVENQELEHHHHHH”: the “soluble on expression in E. coli” value is recorded as “soluble”.

As to “MVAAWNRWDLSGIIKHWSPDIVHYSEDNEVSSADMVKLMEGGLKAFPDLQLEMKSIMAEEDRVALRITVTATHQGEFMGVQPTGQRVSWHLVEELRFVDGKVVEHWDVINMRPLLVRLGKLPDVPKVVLEASA”, the “soluble on expression in E. coli” value is listed as “soluble”.

In the case of “GPGSMIPGLPPAFDVECNRMEDVFASVKSRTVGKDGNLLSPEESWVQRELQYYENLYTEQQELTVCLVTFNVACKKPPANLAALISLKMAEDTNRPVDLIMVSLQEVDMSASAMLKEETEASTPWVVGLHAAVGADSRSPSNTPYFAFPPKQLVGLLLCVYLRRQLLPYMQEMSVATVATGALGSMGNKGAIGLRLVLHRTSLCLINVHLAAGQSNVVKT”, the “soluble on expression in E. coli” value is reported as “not soluble”.

(Values after the DeepSol protein solubility set.)
